The source of these data is US20220402983A1 (Janssen / Centocor, published 2022).

The target in the test is T1, human IL-23R (interleukin-23 receptor) (human, UniProt Q5VWK5 24-629).
T1 sequence (looked up): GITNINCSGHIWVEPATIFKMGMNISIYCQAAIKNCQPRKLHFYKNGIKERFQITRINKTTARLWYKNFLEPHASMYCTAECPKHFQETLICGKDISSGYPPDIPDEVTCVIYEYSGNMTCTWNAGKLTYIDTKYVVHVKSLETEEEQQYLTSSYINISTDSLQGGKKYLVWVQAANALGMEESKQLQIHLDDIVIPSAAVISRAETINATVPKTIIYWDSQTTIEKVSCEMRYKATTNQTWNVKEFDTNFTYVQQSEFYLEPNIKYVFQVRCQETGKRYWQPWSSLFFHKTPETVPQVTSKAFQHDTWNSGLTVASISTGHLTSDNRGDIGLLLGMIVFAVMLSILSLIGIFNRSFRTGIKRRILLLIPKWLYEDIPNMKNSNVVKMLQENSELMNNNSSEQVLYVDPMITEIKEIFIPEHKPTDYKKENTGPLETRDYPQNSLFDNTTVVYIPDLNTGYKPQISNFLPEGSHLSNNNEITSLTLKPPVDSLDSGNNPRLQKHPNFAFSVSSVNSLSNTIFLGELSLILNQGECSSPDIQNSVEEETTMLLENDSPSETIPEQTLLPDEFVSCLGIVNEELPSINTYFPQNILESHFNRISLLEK
In words: cell-based or functional assay.

Bridges are numbered along the chain shown (N, C = ends). [ ]: non-standard residue; d: D form. The star is where a group is joined. Trp(7-Ph) = N[C@@H](Cc1c[nH]c2c(-c3ccccc3)cccc12)C(=O)O; Trp(7-Me) = Cc1cccc2c(C[C@H](N)C(=O)O)c[nH]c12; 2Nal = N[C@@H](Cc1ccc2ccccc2c1)C(=O)O; d(αMeF) = C[C@@](N)(Cc1ccccc1)C(=O)O; AEF = NCCOc1ccc(C[C@H](N)C(=O)O)cc1; Cyclopropanecarbonyl = O=C(C1CC1)*; αMeF = C[C@](N)(Cc1ccccc1)C(=O)O; Pen = CC(C)(S)[C@H](N)C(=O)O; αMeK = C[C@](N)(CCCCN)C(=O)O; 3Quin = not defined here; Isobutyryl = CC(C)C(=O)*; Thp = NC1(C(=O)O)CCOCC1; Abu = CC[C@H](N)C(=O)O; Hexanoyl = CCCCCC(=O)*; Aib = CC(C)(N)C(=O)O; Propionyl = CCC(=O)*; Tfa = O=C(C(F)(F)F)*; Butyryl = CCCC(=O)*

B1: Compound No. 62 (peptide)
peptide: Ac-[Pen]NT[Trp(7-Ph)]K(Ac)[Pen][AEF][3Quin][Thp]EN[Aib]-NH2
modifications: disulfide 1-6; reading uncertain
As for B1, the “pStat3 HTRF (nM), IC50, DB cells IL23R pSTAT3 cell assay” value (“pStat3 HTRF (nM), IC50” for short) came out at 0.413 nM.

B2: Compound No. 56 (peptide)
peptide: Ac-[dR][Pen]QTWQ[Pen][AEF][2Nal][Thp]K(Ac)N[Thp]-NH2
modifications: disulfide 2-7
SMILES: CC(=O)NCCCC[C@H](NC(=O)C1(NC(=O)[C@H](Cc2ccc3ccccc3c2)NC(=O)[C@H](Cc2ccc(OCCN)cc2)NC(=O)[C@H]2NC(=O)[C@H](CCC(N)=O)NC(=O)[C@H](Cc3c[nH]c4ccccc34)NC(=O)[C@H]([C@@H](C)O)NC(=O)[C@H](CCC(N)=O)NC(=O)[C@@H](NC(=O)[C@@H](CCCNC(=N)N)NC(C)=O)C(C)(C)SSC2(C)C)CCOCC1)C(=O)N[C@@H](CC(N)=O)C(=O)NC1(C(N)=O)CCOCC1
As for B2, the “PBMC pSTAT3 IC50 (nM)” value came out at 4.9 nM.

B3: Compound No. 53 (peptide)
peptide: Ac-[dR][Pen]QTWQ[Pen][AEF][2Nal][Thp]K(Ac)NF-NH2
modifications: disulfide 2-7
SMILES: CC(=O)NCCCC[C@H](NC(=O)C1(NC(=O)[C@H](Cc2ccc3ccccc3c2)NC(=O)[C@H](Cc2ccc(OCCN)cc2)NC(=O)[C@H]2NC(=O)[C@H](CCC(N)=O)NC(=O)[C@H](Cc3c[nH]c4ccccc34)NC(=O)[C@H]([C@@H](C)O)NC(=O)[C@H](CCC(N)=O)NC(=O)[C@@H](NC(=O)[C@@H](CCCNC(=N)N)NC(C)=O)C(C)(C)SSC2(C)C)CCOCC1)C(=O)N[C@@H](CC(N)=O)C(=O)N[C@@H](Cc1ccccc1)C(N)=O
Regarding B3, the “PBMC pSTAT3 IC50 (nM)” value amounted to 29 nM.

B4: Compound No. 54 (peptide)
peptide: Ac-[dR][Pen]QTWQ[Pen][AEF][2Nal][Thp]K(Propionyl)NF-NH2
modifications: disulfide 2-7
SMILES: CCC(=O)NCCCC[C@H](NC(=O)C1(NC(=O)[C@H](Cc2ccc3ccccc3c2)NC(=O)[C@H](Cc2ccc(OCCN)cc2)NC(=O)[C@H]2NC(=O)[C@H](CCC(N)=O)NC(=O)[C@H](Cc3c[nH]c4ccccc34)NC(=O)[C@H]([C@@H](C)O)NC(=O)[C@H](CCC(N)=O)NC(=O)[C@@H](NC(=O)[C@@H](CCCNC(=N)N)NC(C)=O)C(C)(C)SSC2(C)C)CCOCC1)C(=O)N[C@@H](CC(N)=O)C(=O)N[C@@H](Cc1ccccc1)C(N)=O
Consider B4, for which the “PBMC pSTAT3 IC50 (nM)” value was found to be 47 nM.

B5: Compound No. 67 (peptide)
peptide: Ac-[Abu]QT[Trp(7-Ph)]K(Ac)C[AEF][2Nal][αMeK]K(Ac)N[αMeF]-NH2
modifications: thioether 1-6
With B5, the “pStat3 HTRF (nM), IC50” value was found to be 5.52 nM.

B6: Compound No. 60 (peptide)
peptide: Ac-[dR][Pen]QTWQ[Pen][AEF][2Nal][Thp]K(Tfa)NF-NH2
modifications: disulfide 2-7
SMILES: CC(=O)N[C@H](CCCNC(=N)N)C(=O)N[C@@H]1C(=O)N[C@@H](CCC(N)=O)C(=O)N[C@@H]([C@@H](C)O)C(=O)N[C@@H](Cc2c[nH]c3ccccc23)C(=O)N[C@@H](CCC(N)=O)C(=O)N[C@H](C(=O)N[C@@H](Cc2ccc(OCCN)cc2)C(=O)N[C@@H](Cc2ccc3ccccc3c2)C(=O)NC2(C(=O)N[C@@H](CCCCNC(=O)C(F)(F)F)C(=O)N[C@@H](CC(N)=O)C(=O)N[C@@H](Cc3ccccc3)C(N)=O)CCOCC2)C(C)(C)SSC1(C)C
For B6, the “PBMC pSTAT3 IC50 (nM)” value amounted to 44 nM.

B7: Compound No. 68 (peptide)
peptide: Ac-[Pen]NT[Trp(7-Me)]K(Ac)[Pen][AEF][2Nal][αMeK]K(Ac)N[dL][αMeF]-NH2
modifications: disulfide 1-6
SMILES: CC(=O)NCCCC[C@@H]1NC(=O)[C@H](Cc2c[nH]c3c(C)cccc23)NC(=O)[C@H]([C@@H](C)O)NC(=O)[C@H](CC(N)=O)NC(=O)[C@@H](NC(C)=O)C(C)(C)SSC(C)(C)[C@@H](C(=O)N[C@@H](Cc2ccc(OCCN)cc2)C(=O)N[C@@H](Cc2ccc3ccccc3c2)C(=O)N[C@@](C)(CCCCN)C(=O)N[C@@H](CCCCNC(C)=O)C(=O)N[C@@H](CC(N)=O)C(=O)N[C@H](CC(C)C)C(=O)N[C@@](C)(Cc2ccccc2)C(N)=O)NC1=O
On to B7, for which the “pStat3 HTRF (nM), IC50” value came out at 7 nM.

B8: Compound No. 59 (peptide)
peptide: Ac-[dR][Pen]QTWQ[Pen][AEF][2Nal][Thp]K(Hexanoyl)NF-NH2
modifications: disulfide 2-7
SMILES: CCCCCC(=O)NCCCC[C@H](NC(=O)C1(NC(=O)[C@H](Cc2ccc3ccccc3c2)NC(=O)[C@H](Cc2ccc(OCCN)cc2)NC(=O)[C@H]2NC(=O)[C@H](CCC(N)=O)NC(=O)[C@H](Cc3c[nH]c4ccccc34)NC(=O)[C@H]([C@@H](C)O)NC(=O)[C@H](CCC(N)=O)NC(=O)[C@@H](NC(=O)[C@@H](CCCNC(=N)N)NC(C)=O)C(C)(C)SSC2(C)C)CCOCC1)C(=O)N[C@@H](CC(N)=O)C(=O)N[C@@H](Cc1ccccc1)C(N)=O
With B8, the “PBMC pSTAT3 IC50 (nM)” value worked out at 67 nM.

B9: Compound No. 55 (peptide)
peptide: Ac-[dR][Pen]QTWQ[Pen][AEF][2Nal][Thp]K(Cyclopropanecarbonyl)NF-NH2
modifications: disulfide 2-7
SMILES: CC(=O)N[C@H](CCCNC(=N)N)C(=O)N[C@@H]1C(=O)N[C@@H](CCC(N)=O)C(=O)N[C@@H]([C@@H](C)O)C(=O)N[C@@H](Cc2c[nH]c3ccccc23)C(=O)N[C@@H](CCC(N)=O)C(=O)N[C@H](C(=O)N[C@@H](Cc2ccc(OCCN)cc2)C(=O)N[C@@H](Cc2ccc3ccccc3c2)C(=O)NC2(C(=O)N[C@@H](CCCCNC(=O)C3CC3)C(=O)N[C@@H](CC(N)=O)C(=O)N[C@@H](Cc3ccccc3)C(N)=O)CCOCC2)C(C)(C)SSC1(C)C
For B9, the “PBMC pSTAT3 IC50 (nM)” value was found to be 25 nM.

B10: Compound No. 57 (peptide)
peptide: Ac-[dR][Pen]QTWQ[Pen][AEF][2Nal][Thp]K(Propionyl)N[Thp]-NH2
modifications: disulfide 2-7
SMILES: CCC(=O)NCCCC[C@H](NC(=O)C1(NC(=O)[C@H](Cc2ccc3ccccc3c2)NC(=O)[C@H](Cc2ccc(OCCN)cc2)NC(=O)[C@H]2NC(=O)[C@H](CCC(N)=O)NC(=O)[C@H](Cc3c[nH]c4ccccc34)NC(=O)[C@H]([C@@H](C)O)NC(=O)[C@H](CCC(N)=O)NC(=O)[C@@H](NC(=O)[C@@H](CCCNC(=N)N)NC(C)=O)C(C)(C)SSC2(C)C)CCOCC1)C(=O)N[C@@H](CC(N)=O)C(=O)NC1(C(N)=O)CCOCC1
For the molecule B10, the “PBMC pSTAT3 IC50 (nM)” value was 18 nM.

B11: Compound No. 69 (peptide)
peptide: Ac-[Pen]NT[Trp(7-Me)]K(Ac)[Pen][AEF][2Nal][αMeK]K(Ac)N[dL][d(αMeF)]-NH2
modifications: disulfide 1-6
SMILES: CC(=O)NCCCC[C@@H]1NC(=O)[C@H](Cc2c[nH]c3c(C)cccc23)NC(=O)[C@H]([C@@H](C)O)NC(=O)[C@H](CC(N)=O)NC(=O)[C@@H](NC(C)=O)C(C)(C)SSC(C)(C)[C@@H](C(=O)N[C@@H](Cc2ccc(OCCN)cc2)C(=O)N[C@@H](Cc2ccc3ccccc3c2)C(=O)N[C@@](C)(CCCCN)C(=O)N[C@@H](CCCCNC(C)=O)C(=O)N[C@@H](CC(N)=O)C(=O)N[C@H](CC(C)C)C(=O)N[C@](C)(Cc2ccccc2)C(N)=O)NC1=O
Turning to B11, the “pStat3 HTRF (nM), IC50” value amounted to 2.75 nM.

B12: Compound No. 63 (peptide)
peptide: Ac-[Pen]NT[Trp(7-Ph)]K(Ac)[Pen][AEF][3Quin][αMeK]K(Ac)N[Aib]-NH2
modifications: disulfide 1-6; reading uncertain
For B12, the “pStat3 HTRF (nM), IC50” value is 1.02 nM.

B13: Compound No. 61 (peptide)
peptide: Ac-[dR][Pen]QTWQ[Pen][AEF][2Nal][Thp]K(Isobutyryl)NF-NH2
modifications: disulfide 2-7
SMILES: CC(=O)N[C@H](CCCNC(=N)N)C(=O)N[C@@H]1C(=O)N[C@@H](CCC(N)=O)C(=O)N[C@@H]([C@@H](C)O)C(=O)N[C@@H](Cc2c[nH]c3ccccc23)C(=O)N[C@@H](CCC(N)=O)C(=O)N[C@H](C(=O)N[C@@H](Cc2ccc(OCCN)cc2)C(=O)N[C@@H](Cc2ccc3ccccc3c2)C(=O)NC2(C(=O)N[C@@H](CCCCNC(=O)C(C)C)C(=O)N[C@@H](CC(N)=O)C(=O)N[C@@H](Cc3ccccc3)C(N)=O)CCOCC2)C(C)(C)SSC1(C)C
Regarding B13, the “PBMC pSTAT3 IC50 (nM)” value was determined as 70 nM.

B14: Compound No. 58 (peptide)
peptide: Ac-[dR][Pen]QTWQ[Pen][AEF][2Nal][Thp]K(Butyryl)NF-NH2
modifications: disulfide 2-7
SMILES: CCCC(=O)NCCCC[C@H](NC(=O)C1(NC(=O)[C@H](Cc2ccc3ccccc3c2)NC(=O)[C@H](Cc2ccc(OCCN)cc2)NC(=O)[C@H]2NC(=O)[C@H](CCC(N)=O)NC(=O)[C@H](Cc3c[nH]c4ccccc34)NC(=O)[C@H]([C@@H](C)O)NC(=O)[C@H](CCC(N)=O)NC(=O)[C@@H](NC(=O)[C@@H](CCCNC(=N)N)NC(C)=O)C(C)(C)SSC2(C)C)CCOCC1)C(=O)N[C@@H](CC(N)=O)C(=O)N[C@@H](Cc1ccccc1)C(N)=O
As to B14, the “PBMC pSTAT3 IC50 (nM)” value was found to be 35 nM.
